Among the data in paper PMC6599655 are expression_or_secretion values, retold here.

Series [1] is described as follows: Western blot of concentrated culture supernatant vs lysate. The settings on record: glycan lost; control: wild type.
The nature of series [2]: Western blot of 293T cell lysates. The settings on record: glycan lost; control: wild type. A general note: Immunoblotting shows a protein as a band on a membrane.

B1: Procollagen C-proteinase enhancer protein (PCOLCE): N29Q (protein)
parent chain: MLPAATASLLGPLLTACALLPFAQGQTPNYTRPVFLCGGDVKGESGYVASEGFPNLYPPNKECIWTITVPEGQTVSLSFRVFDLELHPACRYDALEVFAGSGTSGQRLGRFCGTFRPAPLVAPGNQVTLRMTTDEGTGGRGFLLWYSGRATSGTEHQFCGGRLEKAQGTLTTPNWPESDYPPGISCSWHIIAPPDQVIALTFEKFDLEPDTYCRYDSVSVFNGAVSDDSRRLGKFCGDAVPGSISSEGNELLVQFVSDLSVTADGFSASYKTLPRGTAKEGQGPGPKRGTEPKVKLPPKSQPPEKTEESPSAPDAPTCPKQCRRTGTLQSNFCASSLVVTATVKSMVREPGEGLAVTVSLIGAYKTGGLDLPSPPTGASLKFYVPCKQCPPMKKGVSYLLMGQVEENRGPVLPPESFVVLHRPNQDQILTNLSKRKCPSQPVRAAASQD
As to B1, the expression_or_secretion result in series [1] and in series [2] was “decreases” throughout.
